According to paper doi:10.1101/2020.01.06.896597 (bioRxiv, 2020):

B1: full-length (FL) human ACAT1 (enzyme, UniProt P35610 1-550, looked up)
chain: MVGEEKMSLRNRLSKSRENPEEDEDQRNPAKESLETPSNGRIDIKQLIAKKIKLTAEAEELKPFFMKEVGSHFDDFVTNLIEKSASLDNGGCALTTFSVLEGEKNNHRAKDLRAPPEQGKIFIARRSLLDELLEVDHIRTIYHMFIALLILFILSTLVVDYIDEGRLVLEFSLLSYAFGKFPTVVWTWWIMFLSTFSVPYFLFQHWATGYSKSSHPLIRSLFHGFLFMIFQIGVLGFGPTYVVLAYTLPPASRFIIIFEQIRFVMKAHSFVRENVPRVLNSAKEKSSTVPIPTVNQYLYFLFAPTLIYRDSYPRNPTVRWGYVAMKFAQVFGCFFYVYYIFERLCAPLFRNIKQEPFSARVLVLCVFNSILPGVLILFLTFFAFLHCWLNAFAEMLRFGDRMFYKDWWNSTSYSNYYRTWNVVVHDWLYYYAYKDFLWFFSKRFKSAAMLAVFAVSAVVHEYALAVCLSFFYPVLFVLFMFFGMAFNFIVNDSRKKPIWNVLMWTSLFLGNGVLLCFYSQEWYARQHCPLKNPTFLDYVRPRSWTCRYVF
B2: ACAT1-ΔNTD (domain or fragment, human, UniProt P35610 111-550, looked up)
chain: DLRAPPEQGKIFIARRSLLDELLEVDHIRTIYHMFIALLILFILSTLVVDYIDEGRLVLEFSLLSYAFGKFPTVVWTWWIMFLSTFSVPYFLFQHWATGYSKSSHPLIRSLFHGFLFMIFQIGVLGFGPTYVVLAYTLPPASRFIIIFEQIRFVMKAHSFVRENVPRVLNSAKEKSSTVPIPTVNQYLYFLFAPTLIYRDSYPRNPTVRWGYVAMKFAQVFGCFFYVYYIFERLCAPLFRNIKQEPFSARVLVLCVFNSILPGVLILFLTFFAFLHCWLNAFAEMLRFGDRMFYKDWWNSTSYSNYYRTWNVVVHDWLYYYAYKDFLWFFSKRFKSAAMLAVFAVSAVVHEYALAVCLSFFYPVLFVLFMFFGMAFNFIVNDSRKKPIWNVLMWTSLFLGNGVLLCFYSQEWYARQHCPLKNPTFLDYVRPRSWTCRYVF

How the values were obtained:
[1] = target: the molecule itself; test: cryo-EM structure
[2] = target: the molecule itself; test: cryo-EM 2D class averages

Protein | stoichiometry N [1] | stoichiometry N [2]
B1 | 4 | –
B2 | – | 2
